This note sets out measurements from US12178803B2, “CD47 blockade with PARP inhibition for disease treatment” (TRILLIUM THERAPEUTICS ULC, priority 2018, dated 2024).

The series is described as follows: Systemic toxicity by clinical parameter scoring in the xenograft study. Type of series: in vivo. The conditions noted are these: SIRPαFc added to niraparib and/or RT. The method, then:
Niraparib (50 mg/kg) was administered 1 hour prior to RT, 5 times per week for 1 week. Mice were treated with whole abdomen radiotherapy (external beam radiation therapy) at a dose of 2 Gy for 2 fractions using an image-guided small animal irradiator (225 kVp, 13 mA). Treatment was initiated on day 7 following tumor inoculation. Treatment efficacy was assessed by bioluminescent imaging (BLI) and animal survival. Systemic toxicity was evaluated by clinical parameter scoring.

For “SIRPαFc: CD47 blocking fusion protein: IgV domain of human SIRPα V2 fused to a human IgG Fc region; preferred SEQ ID NO:8”, the “additional toxicity when combined with PARPi (niraparib) and/or RT” value was “without showing additional toxicity”.
